# Measured values reported in paper PMC9242591 (Science Advances, 2022).
# T1: His-tagged NIN-LIKE PROTEIN 7 (His-NLP7) (Arabidopsis thaliana, UniProt Q84TH9 1-959)
# T1 sequence (looked up): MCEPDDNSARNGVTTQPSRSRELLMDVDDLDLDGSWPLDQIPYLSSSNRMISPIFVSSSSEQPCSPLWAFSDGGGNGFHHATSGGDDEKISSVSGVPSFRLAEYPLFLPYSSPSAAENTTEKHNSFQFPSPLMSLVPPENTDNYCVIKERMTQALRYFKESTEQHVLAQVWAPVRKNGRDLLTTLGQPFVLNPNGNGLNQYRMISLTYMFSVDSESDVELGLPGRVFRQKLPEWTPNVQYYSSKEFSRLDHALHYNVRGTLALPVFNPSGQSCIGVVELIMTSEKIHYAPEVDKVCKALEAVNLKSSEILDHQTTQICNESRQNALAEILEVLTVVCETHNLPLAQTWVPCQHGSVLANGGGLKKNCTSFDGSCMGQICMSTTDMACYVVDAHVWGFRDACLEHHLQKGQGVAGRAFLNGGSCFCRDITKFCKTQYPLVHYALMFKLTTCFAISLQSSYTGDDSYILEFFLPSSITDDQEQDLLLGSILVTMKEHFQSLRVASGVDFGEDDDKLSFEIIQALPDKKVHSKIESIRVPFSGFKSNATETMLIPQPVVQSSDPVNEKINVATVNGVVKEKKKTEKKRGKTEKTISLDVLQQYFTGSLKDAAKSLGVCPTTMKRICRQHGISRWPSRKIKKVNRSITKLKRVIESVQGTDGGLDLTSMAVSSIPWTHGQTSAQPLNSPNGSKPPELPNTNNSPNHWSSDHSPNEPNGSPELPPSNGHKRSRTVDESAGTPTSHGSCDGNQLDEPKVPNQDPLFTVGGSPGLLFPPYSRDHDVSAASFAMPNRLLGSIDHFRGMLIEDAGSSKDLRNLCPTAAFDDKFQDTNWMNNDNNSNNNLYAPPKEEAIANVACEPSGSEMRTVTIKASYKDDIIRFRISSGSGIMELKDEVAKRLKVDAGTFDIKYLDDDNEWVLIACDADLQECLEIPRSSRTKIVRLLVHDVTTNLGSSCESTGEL
# Key:
# His-NLP7 (RWP-RK) = His-NLP7 (RWP-RK) (Arabidopsis thaliana, UniProt Q84TH9 535-733); assay: EMSA
# [1] = target: T1, His-tagged NIN-LIKE PROTEIN 7 (His-NLP7); assay: pull-down
binding result [1],Binder,binding result (His-NLP7 (RWP-RK))
,CBF1-NREL probe (dsDNA) DNA 1: AAAAGTCTCTTTACAAGGGTCAAA DNA 2: TTTGACCCTTGTAAAGAGACTTTT,binds
binds,"GST-tagged CALCIUM-DEPENDENT PROTEIN KINASE 28 (GST-CPK28) (enzyme, Arabidopsis thaliana, UniProt Q9FKW4 1-523, looked up) MGVCFSAIRVTGASSSRRSSQTKSKAAPTPIDTKASTKRRTGSIPCGKRTDFGYSKDFHDHYTIGKLLGHGQFGYTYVAIHRPNGDRVAVKRLDKSKMVLPIAVEDVKREVQILIALSGHENVVQFHNAFEDDDYVYIVMELCEGGELLDRILSKKGNRYSEKDAAVVVRQMLKVAGECHLHGLVHRDMKPENFLFKSAQLDSPLKATDFGLSDFIKPGKRFHDIVGSAYYVAPEVLKRRSGPESDVWSIGVITYILLCGRRPFWDRTEDGIFKEVLRNKPDFSRKPWATISDSAKDFVKKLLVKDPRARLTAAQALSHAWVREGGNATDIPVDISVLNNLRQFVRYSRLKQFALRALASTLDEAEISDLRDQFDAIDVDKNGVISLEEMRQALAKDLPWKLKDSRVAEILEAIDSNTDGLVDFTEFVAAALHVHQLEEHDSEKWQLRSRAAFEKFDLDKDGYITPEELRMHTGLRGSIDPLLDEADIDRDGKISLHEFRRLLRTASISSQRAPSPAGHRNLR",
